Data from PMC7016264, “Redox requirements for ubiquitin-like urmylation of Ahp1, a 2-Cys peroxiredoxin from yeast” (Redox Biology, 2020).

Molecular target: the molecule itself
Experiment: SEC-MALS; proteins reduced with 50 mM DTT, exchanged into 20 mM HEPES pH 7.5, 100 mM NaCl, 1 mM TCEP, diluted to 125 uM; dimer to monomers

B1: His-tagged Ahp1, wild-type (recombinant) (enzyme, S. cerevisiae, UniProt P38013 1-176, looked up)
chain: MSDLVNKKFPAGDYKFQYIAISQSDADSESCKMPQTVEWSKLISENKKVIITGAPAAFSPTCTVSHIPGYINYLDELVKEKEVDQVIVVTVDNPFANQAWAKSLGVKDTTHIKFASDPGCAFTKSIGFELAVGDGVYWSGRWAMVVENGIVTYAAKETNPGTDVTVSSVESVLAHL
notes: Ahp1, 2-Cys peroxiredoxin of Saccharomyces cerevisiae; The printed mass of the His-tagged monomer is ~23.3 kDa (dimer 46.7 kDa) against ~19 kDa for untagged Ahp1, so vector-derived residues are probably present; also called wild-type Ahp1; wt Ahp1; source: E. coli, purified (His-tagged)
**Q.** B1 was tested. Which “stoichiometry N” value did it give?
**A.** 2
